Earlier results on one substance are cited in publication PMC6478124.

The series deals with HDM2 (Homo sapiens) (UniProt Q00987).
HDM2 (Homo sapiens), sequence (Q00987 whole entry): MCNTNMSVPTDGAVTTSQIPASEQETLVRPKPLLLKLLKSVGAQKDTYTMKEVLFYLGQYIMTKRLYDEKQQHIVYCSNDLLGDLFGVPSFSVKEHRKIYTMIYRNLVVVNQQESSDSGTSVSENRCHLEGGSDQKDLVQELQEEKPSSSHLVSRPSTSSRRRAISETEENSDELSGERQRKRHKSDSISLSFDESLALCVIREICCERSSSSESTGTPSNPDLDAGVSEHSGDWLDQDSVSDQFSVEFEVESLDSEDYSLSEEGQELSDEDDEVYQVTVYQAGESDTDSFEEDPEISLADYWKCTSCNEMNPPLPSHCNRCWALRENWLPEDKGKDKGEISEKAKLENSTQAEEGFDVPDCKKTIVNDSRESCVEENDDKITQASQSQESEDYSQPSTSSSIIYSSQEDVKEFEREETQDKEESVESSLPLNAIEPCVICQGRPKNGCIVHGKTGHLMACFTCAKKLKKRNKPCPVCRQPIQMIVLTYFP

On to “stapled p53 transactivation domain peptide transactivation domain α-helix (from UniProt P04637)”, for which the Kd was 6.76 nM.
